pKd: −log10 of the molar value.
Molecular target: laminin from mouse EHS (Engelbreth-Holm-Swarm) sarcoma (mouse)
Test: ELISA

Substance	pKd
RPSA-(2–209) (from UniProt P14206 2-209) (domain or fragment)	6.56
RPSA-(2–220) (from UniProt P14206 2-220) (domain or fragment)	6.16
RPSA-(2–295) (from UniProt P14206 2-295) (natural protein)	6.18
RPSA-(210–295) (from UniProt P14206 210-295) (domain or fragment)	6.43
RPSA-(225–295) (from UniProt P14206 225-295) (domain or fragment)	6.46
